Changes are numbered by the printed parent chain.
What was measured:
[1] = biological target: Insoluble cross-linked fibrin / plasma-derived blood clot (Homo sapiens, UniProt P02671-2;P02675;P02679-2 P02671-2:36-644,P02675:45-491,P02679-2:27-437); assay: qPCR-based binding assay; details: tags: clot prepared from citrated plasma plus CaCl2
Fibrinogen = Fibrinogen (UniProt P02671-2;P02675;P02679-2 P02671-2:20-644,P02675:31-491,P02679-2:27-437); assay: ELONA; 100 nM aptamer; details: chain copies: 2; label: 5' FAM (ELONA and imaging)
[2] = biological target: T1, D-dimer (TGpr1; fibrin clot degradation product DD) (UniProt P02671;P02675;P02679-2 P02671:124-225,P02675:164-491,P02679-2:89-437); assay: ELONA; 100 nM aptamer; details: chain copies: 2; label: 5' FAM (ELONA and imaging)
[3] = biological target: T1, D-dimer (TGpr1; fibrin clot degradation …); assay: ELONA; unit printed as Nm; details: chain copies: 2
[4] = biological target: T1, D-dimer (TGpr1; fibrin clot degradation …); assay: ELONA; considered non-specific; details: chain copies: 2; label: 5' biotin
[5] = biological target: T1, D-dimer (TGpr1; fibrin clot degradation …); assay: ELONA; details: chain copies: 2
[6] = biological target: T1, D-dimer (TGpr1; fibrin clot degradation …); assay: ELONA; TGpr1/SUBpr1 binding ratio, 500 nM aptamer; details: chain copies: 2
Description: FIG. 6 is a graph of the relative fluorescence of five aptamers to TGpr-1 protein and SUBpr-1 protein. The test was performed with an ELONA method with fixed aptamer concentration (500 nM) and protein amount (2 ug/well). *p<0.01.

T1 sequence (P02671 124-225, chain 1 of 3): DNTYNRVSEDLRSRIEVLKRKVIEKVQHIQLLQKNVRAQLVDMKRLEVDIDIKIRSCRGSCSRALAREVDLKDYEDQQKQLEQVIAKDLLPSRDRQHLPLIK
T1 sequence (P02675 164-491, chain 2 of 3): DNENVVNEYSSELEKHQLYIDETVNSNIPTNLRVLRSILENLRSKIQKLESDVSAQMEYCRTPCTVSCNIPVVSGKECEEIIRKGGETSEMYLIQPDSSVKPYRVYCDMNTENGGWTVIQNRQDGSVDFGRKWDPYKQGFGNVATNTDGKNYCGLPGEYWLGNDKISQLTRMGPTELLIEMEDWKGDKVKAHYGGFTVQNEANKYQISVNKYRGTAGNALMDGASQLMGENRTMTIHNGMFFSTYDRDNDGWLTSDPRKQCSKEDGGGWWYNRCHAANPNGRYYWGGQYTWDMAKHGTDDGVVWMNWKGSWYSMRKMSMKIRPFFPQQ
T1 sequence (P02679 other isoform, or with tags, fused parts or gaps, chain 3 of 3): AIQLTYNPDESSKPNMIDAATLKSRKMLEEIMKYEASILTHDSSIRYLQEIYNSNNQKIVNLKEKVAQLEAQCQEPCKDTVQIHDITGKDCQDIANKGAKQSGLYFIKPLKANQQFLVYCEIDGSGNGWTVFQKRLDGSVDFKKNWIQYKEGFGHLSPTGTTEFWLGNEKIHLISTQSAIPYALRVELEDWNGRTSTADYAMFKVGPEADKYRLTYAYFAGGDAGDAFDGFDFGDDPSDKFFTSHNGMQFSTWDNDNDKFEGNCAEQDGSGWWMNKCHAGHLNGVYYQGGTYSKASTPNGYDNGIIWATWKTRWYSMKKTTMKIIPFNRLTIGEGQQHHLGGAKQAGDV
Chain of Insoluble cross-linked fibrin / plasma-derived blood clot (P02671 other isoform, or with tags, fused parts or gaps, chain 1 of 3): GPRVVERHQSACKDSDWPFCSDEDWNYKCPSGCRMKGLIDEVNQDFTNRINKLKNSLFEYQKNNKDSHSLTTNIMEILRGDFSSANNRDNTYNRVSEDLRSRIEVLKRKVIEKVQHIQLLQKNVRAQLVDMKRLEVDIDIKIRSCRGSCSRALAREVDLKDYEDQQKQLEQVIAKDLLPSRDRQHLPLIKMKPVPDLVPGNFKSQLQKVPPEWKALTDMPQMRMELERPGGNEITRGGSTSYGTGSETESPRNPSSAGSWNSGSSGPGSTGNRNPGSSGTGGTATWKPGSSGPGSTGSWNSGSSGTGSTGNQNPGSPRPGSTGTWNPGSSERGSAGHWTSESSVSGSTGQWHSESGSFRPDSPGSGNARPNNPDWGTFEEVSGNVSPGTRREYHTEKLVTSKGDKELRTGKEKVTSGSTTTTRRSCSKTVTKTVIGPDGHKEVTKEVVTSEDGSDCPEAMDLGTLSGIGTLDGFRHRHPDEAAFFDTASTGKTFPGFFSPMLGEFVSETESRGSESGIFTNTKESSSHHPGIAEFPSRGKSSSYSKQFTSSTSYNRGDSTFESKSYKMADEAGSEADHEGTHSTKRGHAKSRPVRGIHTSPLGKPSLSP
Chain of Insoluble cross-linked fibrin / plasma-derived blood clot (P02675 45-491, chain 2 of 3): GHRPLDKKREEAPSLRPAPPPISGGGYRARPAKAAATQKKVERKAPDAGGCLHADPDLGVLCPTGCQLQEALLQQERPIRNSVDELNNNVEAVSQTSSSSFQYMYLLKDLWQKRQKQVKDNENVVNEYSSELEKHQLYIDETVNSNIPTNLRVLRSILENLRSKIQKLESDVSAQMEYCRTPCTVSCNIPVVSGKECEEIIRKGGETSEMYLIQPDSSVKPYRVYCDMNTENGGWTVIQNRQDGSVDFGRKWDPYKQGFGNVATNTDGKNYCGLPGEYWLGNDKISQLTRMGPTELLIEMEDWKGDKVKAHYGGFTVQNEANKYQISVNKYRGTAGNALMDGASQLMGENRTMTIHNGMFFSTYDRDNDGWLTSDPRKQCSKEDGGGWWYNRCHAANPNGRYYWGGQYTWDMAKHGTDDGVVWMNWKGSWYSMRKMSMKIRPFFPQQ
Chain of Insoluble cross-linked fibrin / plasma-derived blood clot (P02679 other isoform, or with tags, fused parts or gaps, chain 3 of 3): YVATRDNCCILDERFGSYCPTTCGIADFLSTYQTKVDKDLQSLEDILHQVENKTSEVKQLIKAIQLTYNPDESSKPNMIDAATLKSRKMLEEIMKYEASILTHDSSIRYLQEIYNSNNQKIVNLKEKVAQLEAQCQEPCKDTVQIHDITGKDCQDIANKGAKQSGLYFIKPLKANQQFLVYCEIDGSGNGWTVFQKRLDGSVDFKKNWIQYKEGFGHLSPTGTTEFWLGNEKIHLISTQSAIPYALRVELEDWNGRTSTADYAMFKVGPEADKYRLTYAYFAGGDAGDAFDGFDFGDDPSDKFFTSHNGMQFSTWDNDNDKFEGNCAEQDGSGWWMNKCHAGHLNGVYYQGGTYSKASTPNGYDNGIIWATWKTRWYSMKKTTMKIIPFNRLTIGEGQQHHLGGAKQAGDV
Chain of Fibrinogen (P02671 other isoform, or with tags, fused parts or gaps, chain 1 of 3): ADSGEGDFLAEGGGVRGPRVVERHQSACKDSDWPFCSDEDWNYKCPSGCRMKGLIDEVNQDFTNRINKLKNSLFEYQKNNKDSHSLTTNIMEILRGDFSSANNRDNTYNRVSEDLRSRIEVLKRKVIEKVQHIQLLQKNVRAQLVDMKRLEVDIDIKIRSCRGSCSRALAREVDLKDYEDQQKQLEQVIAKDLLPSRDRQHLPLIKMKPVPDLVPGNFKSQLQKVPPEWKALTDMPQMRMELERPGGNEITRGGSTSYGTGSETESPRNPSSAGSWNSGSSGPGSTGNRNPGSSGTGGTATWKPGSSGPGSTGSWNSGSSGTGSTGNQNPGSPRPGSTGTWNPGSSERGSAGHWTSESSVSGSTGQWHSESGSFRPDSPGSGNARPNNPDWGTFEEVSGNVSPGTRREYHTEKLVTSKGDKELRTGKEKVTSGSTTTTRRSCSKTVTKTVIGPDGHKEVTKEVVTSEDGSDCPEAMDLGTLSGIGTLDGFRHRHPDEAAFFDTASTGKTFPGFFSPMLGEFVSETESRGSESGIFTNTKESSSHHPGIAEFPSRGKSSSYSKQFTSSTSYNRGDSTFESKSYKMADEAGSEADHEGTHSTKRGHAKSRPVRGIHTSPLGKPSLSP
Chain of Fibrinogen (P02675 31-491, chain 2 of 3): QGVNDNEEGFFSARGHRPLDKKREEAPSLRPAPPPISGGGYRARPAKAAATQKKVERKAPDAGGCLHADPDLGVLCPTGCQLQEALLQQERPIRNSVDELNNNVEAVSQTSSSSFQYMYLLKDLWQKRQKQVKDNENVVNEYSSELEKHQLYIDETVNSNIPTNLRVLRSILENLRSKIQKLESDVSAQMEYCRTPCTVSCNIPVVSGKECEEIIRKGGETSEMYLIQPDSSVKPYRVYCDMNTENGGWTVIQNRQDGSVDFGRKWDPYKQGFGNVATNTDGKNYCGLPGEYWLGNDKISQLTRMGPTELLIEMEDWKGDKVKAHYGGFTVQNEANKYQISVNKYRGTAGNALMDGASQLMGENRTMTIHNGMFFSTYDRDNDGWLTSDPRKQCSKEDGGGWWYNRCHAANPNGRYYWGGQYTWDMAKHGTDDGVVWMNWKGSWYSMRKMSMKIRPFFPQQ

B1: RNV604 (ssDNA)
DNA: GGACAGGACCACACCCAGCGGATACCTGAAGCTGGCCCACATTTATCTACGCGATATATTGGCTCCTGTGTGTCGCTTTGT
- binding result [1]: binds

B2: RNV603 (ssDNA)
DNA: GGACAGGACCACACCCAGCGTGCGTGAAATTCGGGGCATGGTTAGGATAGGTAATATTTTGGCTCCTGTGTGTCGCTTTGT
- binding result [1]: binds

B3: RNV605 (ssDNA)
DNA: GGACAGGACCACACCCAGCGATAATTAGGCATCCGGTCGCCAACCTTGGAGAAACTATCTGGCTCCTGTGTGTCGCTTTGT
- binding result (Fibrinogen): no binding
- binding result [2]: no binding

B4: RNV606 (ssDNA)
DNA: GGACAGGACCACACCCAGCGGATAACTAGGCACCCGGTGTCGTTATTATGACAAGATATTGGCTCCTGTGTGTCGCTTTGT
- binding result [1]: binds

B5: AP10-01-81 (ssDNA)
DNA: GGACAGGACCACACCCAGCGACAGTGTGGGCGGGCGGGTGGTTTGGAGCTGGTAGCGGTAGGCTCCTGTGTGTCGCTTTGT
- Kd [3]: 59 nM

B6: EM1 (ssDNA)
DNA: ACAAAGCGACACACAGGAGCCCAATGATGCTGTTATGGCGCTTTGTGGACAGGACCACACCCAGCG
- Kd [4]: > 1000 nM

Binder: ACAGTGTGGGCGGGCGGGTGGTTTGGAGCTGGTAGCGGTA (ssDNA) [AP10-01]
- Kd [5]: 54 nM
- binding signal [6]: 4.21 ratio

B7: RNV607 (ssDNA)
DNA: GGACAGGACCACACCCAGCGAGGAAATATTTAGGCACCCGGTCTCTGAAAATATTGTGCTGGCTCCTGTGTGTCGCTTTGT
- binding result [1]: binds

B8: RNV602 (ssDNA)
DNA: GGACAGGACCACACCCAGCGTAATAATATGGGGCTTGCGGTCCCCGATTTTTATGCACACGGCTCCTGTGTGTCGCTTTGT
- binding result (Fibrinogen): no binding
- binding result [2]: no binding

Binder: AAGGGAAAGTGTATACACTATGGCT (ssDNA) [EM9-02]
- binding signal [6]: 1.85 ratio

B9: AP1 (ssDNA)
DNA: ACAAAGCGACACACAGGAGCCCGGTCGGCGGGGGGGCGGGTGGAGAACGAGGTAGGGGTCAGGACAGGACCACACCCAGCG
- Kd [4]: > 1000 nM

B10: AP3 (ssDNA)
DNA: B9 DNA with G33T
- Kd [4]: > 1000 nM
